Data: IntAct's records for PubMed 23022437

B1: Sodium channel protein type 7 subunit alpha (Mus musculus), B1AYL1 (parent)
chain: MLTSPEPKGLVPFTTESLELIENHIAKKCNEDPEEEEGLKPSRNLEAGKRLPIPYGTLPRGTVSEPLEDVDPYYYVKRNTFMVLNRSRVIFRFNAVSIFCTLSPLNSLRRAAIKALVHPLFRLLILISVLTDSILMCMSNLPEWILAIENTLLGIYAFEILVKVIARGIWAGSFSFLGDLWNWLDFSVTLFELITRFSPLSSFLMLKTIRTFRILKIIPLNHGLQSIVMTLAQCLKKLFGAIALALFFLAVFSLLGMGLFMGNLKHKCLRWPEENENETLHNRTGSLNYSPERINFYYMEGAKYALLCGNRTDAGQCPEGYVCVKEGTNPDNGFTSFDNFGWSLLAMFRLMTQDYPELLYHQILYASGKVYMIFFVMISFWFAFYLTSLFLGILTMTYEKEKQRACEESGGLDPKCQQTVKELDEENDAAEMETTQIEMKKRSPTSINTTLDILEDTTLGHREEPETSRKKCPICWHKFIKTCFIWKCSPCWVKLNEFADRVITHPLADLFLVICIVLNICFLALEHFPMSEELRSLLHVGNLVFIGIYTIEMILKIIAMHPYGYFQISWNIFDSILVVLELTEILLADVEGLAVLITVPLIFIKLGKYGPPFKSLMRILGSSLMALKDLVLLLCIFVYFSAVFGMKLFGRSYKDCVCHIKEDCQPQRWHMSDFLHAYMTVFRILCGEWIETLWECMEVAGQAWCIPFYMMVILIGNLLILYLFVTLVSSFSYYDATSEVNKEAKNLQLAMARIKSGINSMLLKLMCTERSVPTEATDQICDPSVKENISGHTLSELSNTQTFLRYKDQSSSTEKTPVTESESQSLIASPSASETVPIASGESDIENLDNKETRSKSGNGGSKEKMKQSSSSECSTVDIAISEEEEMVYEHEKSKLHKNGYERKSSTGQISRESRNGKIWKNIRKTCCKIVENSWFECFIGLVTLLCTGTLALEDIYIDQRKTTKILLEYADMIFAYIFILEMLLKWVAYGFKAFFSNNWYKLDFMVVIVFCLSLIGKTREDLNPLTSIKFLRALRVLSQFERMKVVLRALIKTTLPTVSVFLVCLMIWLLFSVIGVQLFAGKFYECIDPTKGERFPVFEVMNKSQCEKLLFNESMPWENAKLNFDNVGNGFLSLLQVATFNGWISIMNSAIDSVGVNMQPSFEYNLYMYSYFIIFVIFGLFLPLCMLIGVIIRNFNKQKIKQGGSNIFITVKQKKQYRALKKLLYADVQKPTPRPRNKFQGFLFDLVTHRVFNVIIILLICFQATTIMIQKDEQSPQMETAIFWMNSIFVMLFTLECILKLTAFRCHYFTSAWNVHDFMVVIFSITGLLLPLTIGQYFVPPSLVQLILLSRVIHILRPGKGPKVFHDLMLPLILALPALLNISLLIFLVMFIYAIFGMYNFAYVKKEAGINDVSNFETFGSSMLCLFQVTTFSGWDGMLDAIFNSQWSDCDPDKINPGTQVKGDCGSPSVGISYFVSYILISWLIIVNMYIVLIMEFLSIPSQKKSRTLSEDDFRRFFRVWNRFDPDRTQYIDSSKLSDFAAALDPPLFMAKPNKGQLVAMDLPMAAGDRIHCLDILLAFTKRVMGKDERVEKILSEIESGFMLANPFKITYEPITTTLKRKQEAVSATIIQRAYKSYRLRQNDKNVSDTPAIDDRRDDLTSKGAHSGKIEEKASIQTQI

Variants of: B1
Settings: with dlg1_mouse Dlg1, Q811D0
Chain of dlg1_mouse Dlg1, Q811D0 (Q811D0 whole entry): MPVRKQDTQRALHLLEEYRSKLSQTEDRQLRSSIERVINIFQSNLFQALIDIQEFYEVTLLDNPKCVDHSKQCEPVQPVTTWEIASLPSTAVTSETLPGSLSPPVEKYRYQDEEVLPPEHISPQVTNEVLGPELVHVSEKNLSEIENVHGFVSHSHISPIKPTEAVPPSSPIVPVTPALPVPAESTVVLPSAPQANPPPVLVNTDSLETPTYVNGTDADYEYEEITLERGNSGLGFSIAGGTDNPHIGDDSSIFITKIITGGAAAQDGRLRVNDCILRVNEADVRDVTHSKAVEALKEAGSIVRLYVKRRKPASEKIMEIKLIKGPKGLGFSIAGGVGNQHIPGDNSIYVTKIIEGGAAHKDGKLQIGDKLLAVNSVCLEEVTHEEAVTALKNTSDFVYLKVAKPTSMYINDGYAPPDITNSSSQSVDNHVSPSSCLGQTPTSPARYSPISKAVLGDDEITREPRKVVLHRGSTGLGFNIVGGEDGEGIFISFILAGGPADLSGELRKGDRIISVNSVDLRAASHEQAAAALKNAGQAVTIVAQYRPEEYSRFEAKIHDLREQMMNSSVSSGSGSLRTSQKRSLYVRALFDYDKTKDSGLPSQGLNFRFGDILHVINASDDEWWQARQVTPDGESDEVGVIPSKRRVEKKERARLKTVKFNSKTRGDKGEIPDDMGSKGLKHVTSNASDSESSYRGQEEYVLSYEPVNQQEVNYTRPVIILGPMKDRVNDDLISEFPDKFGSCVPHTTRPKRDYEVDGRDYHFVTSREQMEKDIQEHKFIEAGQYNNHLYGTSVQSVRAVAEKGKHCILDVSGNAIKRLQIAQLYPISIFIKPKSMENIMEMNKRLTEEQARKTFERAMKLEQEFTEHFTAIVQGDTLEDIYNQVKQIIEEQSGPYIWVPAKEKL

Row | Variant | effect of a mutation on the interaction
1 | T1679A | disrupting interaction

Variants of: B1
Settings: with dlg1_rat Dlg1, Q62696
Chain of dlg1_rat Dlg1, Q62696 (Q62696 whole entry): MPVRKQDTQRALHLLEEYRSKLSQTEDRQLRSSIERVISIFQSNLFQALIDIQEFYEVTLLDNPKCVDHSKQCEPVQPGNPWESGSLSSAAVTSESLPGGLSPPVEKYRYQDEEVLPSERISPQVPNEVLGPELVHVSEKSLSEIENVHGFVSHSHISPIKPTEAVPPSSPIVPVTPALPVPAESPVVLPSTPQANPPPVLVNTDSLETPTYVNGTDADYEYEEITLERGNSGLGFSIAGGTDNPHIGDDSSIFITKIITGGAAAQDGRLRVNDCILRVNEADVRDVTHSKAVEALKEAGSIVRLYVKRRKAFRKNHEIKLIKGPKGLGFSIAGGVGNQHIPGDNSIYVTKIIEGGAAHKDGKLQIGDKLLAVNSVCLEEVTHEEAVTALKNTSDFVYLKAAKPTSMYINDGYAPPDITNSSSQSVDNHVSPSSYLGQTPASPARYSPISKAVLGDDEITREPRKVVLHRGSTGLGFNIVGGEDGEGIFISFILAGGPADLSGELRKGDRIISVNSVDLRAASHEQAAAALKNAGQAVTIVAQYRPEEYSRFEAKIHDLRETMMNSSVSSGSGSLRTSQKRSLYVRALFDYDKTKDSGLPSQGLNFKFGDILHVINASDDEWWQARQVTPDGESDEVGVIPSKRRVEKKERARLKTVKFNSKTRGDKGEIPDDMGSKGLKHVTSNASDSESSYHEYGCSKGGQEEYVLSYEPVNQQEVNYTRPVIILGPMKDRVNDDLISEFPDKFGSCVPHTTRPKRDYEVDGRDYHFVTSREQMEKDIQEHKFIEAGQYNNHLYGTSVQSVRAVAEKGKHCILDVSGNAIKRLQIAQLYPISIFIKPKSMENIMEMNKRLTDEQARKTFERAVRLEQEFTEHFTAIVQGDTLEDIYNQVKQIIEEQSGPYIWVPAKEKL

Row | Variant | effect of a mutation on the interaction
2 | T1679A | disrupting interaction
